Measurements taken from the supplement of paper PMC9732359.
± gives the uncertainty stated by the source.

Experiment: protein stability index of a GFP-peptide fusion (yeast GPS) (PSI 1-4); higher = more stable; sorted into four equal gates, so the index is relative within each strain
Procedure, shortened: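 For each peptide, the protein stability index sums the read frequency in every gate after multiplying it by the gate number. Read frequencies came from plasmids that were PCR-amplified from each gate and Illumina-sequenced, with reads assigned to strains by barcodes. The gates were four equal bins of GFP/Cherry fluorescence ratio applied to mid-log yeast in leucine-free medium carrying a pooled library of tiled 17-residue yeast protein peptides fused downstream of GFP on a Cherry-expressing plasmid.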

Sequence	protein stability index (doa10∆)	protein stability index (pdr5∆)	protein stability index (san1∆)	protein stability index (ubr1∆)
ERHQAGKNQWFFSKLRF [RPL27A]	3.19 ± 0.091	3.24 ± 0.092	3.09 ± 0.075	3.18 ± 0.046
NKELPINHTILGKLQDV [RPN8]	2.62 ± 0.051	2.69 ± 0.068	2.5 ± 0.064	2.67 ± 0.049
LESWWLVLGEVSKKELY [BRR2]	1.68 ± 0.16	1.39 ± 0.14	1.11 ± 0.17	–
EGLIIDTDKLPIKNRTS [SIN4]	2.79 ± 0.11	2.85 ± 0.086	2.76 ± 0.074	2.94 ± 0.063
APLFKKNSSRPMPPIRG [SMD3]	2.42 ± 0.059	2.29 ± 0.064	2.39 ± 0.062	2.5 ± 0.061
FDPSRIKDLKQREDKLK [SMC2]	2.66 ± 0.087	2.88 ± 0.18	2.99 ± 0.28	2.92 ± 0.13
PDGSFEDWSVEELIVDL [RPO26]	3.42 ± 0.17	2.06 ± 0.16	3 ± 0.13	2.84 ± 0.081
NQFKRIDTLLYLMTYPQ [RET1]	1.4 ± 0.1	1.44 ± 0.11	1.48 ± 0.14	1.55 ± 0.067
IYDKKDHKYVCTFSMEP [SRB8]	2.85 ± 0.076	2.99 ± 0.11	2.78 ± 0.06	3 ± 0.069
DIQLKNLFPLKPKMLPI [SRP68]	2.78 ± 0.077	2.66 ± 0.057	2.4 ± 0.058	2.46 ± 0.073
SRKRKPKSASNTSSKRQ [IRR1]	2.86 ± 0.1	2.7 ± 0.14	2.89 ± 0.085	3.09 ± 0.069
SNSVFSPDGRNFQVEYA [PRE10]	3.04 ± 0.057	2.91 ± 0.059	2.87 ± 0.049	2.79 ± 0.054
NKTVNEAAKPSLSFGSG [YJL041W/NSP1]	3.5 ± 0.13	3.01 ± 0.083	2.08 ± 0.21	3.21 ± 0.078
RLYLKDQTNHIESDSIL [ECM29]	2.8 ± 0.062	2.76 ± 0.06	2.96 ± 0.048	2.62 ± 0.035
SNQLISNYAASNSMDRS [SWI1]	3.11 ± 0.18	3.19 ± 0.15	3.27 ± 0.12	3.09 ± 0.12
SDIIILKGEIEDYPMSS [SIR4]	–	–	3.12 ± 0.24	3.48 ± 0.16
LSLTAFTKNEEKLLKEL [ITC1]	2.24 ± 0.081	2.29 ± 0.072	2.29 ± 0.08	2.44 ± 0.26
SAGQPNLLLSASRDKTL [ASC1]	2.4 ± 0.063	2.77 ± 0.05	2.7 ± 0.041	1.91 ± 0.049
IYAGYDDRYGYQLYTSN [PRE9]	2.99 ± 0.16	2.14 ± 0.25	1.86 ± 0.17	2.34 ± 0.16
RQMNLVITLLNNSSITL [YCS4]	1.37 ± 0.05	1.18 ± 0.039	1.19 ± 0.08	1.35 ± 0.035
TEVERAKSLLKLQLGQL [COR1]	1.42 ± 0.042	1.31 ± 0.048	1.36 ± 0.065	1.37 ± 0.037
RGIPRISTLFQRDRHTL [PRP8]	2.57 ± 0.095	2.66 ± 0.16	2.08 ± 0.079	2.68 ± 0.085
NLQTFTHEQWSNIQRNV [SRP72]	2.86 ± 0.065	3 ± 0.064	3.01 ± 0.058	2.93 ± 0.046
AYLLLVQGGNAAPSAAD [RPP2B]	1.84 ± 0.05	1.98 ± 0.038	1.96 ± 0.062	2.45 ± 0.061
IEDLRADINSNRLSNPQ [YOR098C/NUP1]	2.64 ± 0.09	2.8 ± 0.076	2.72 ± 0.06	2.93 ± 0.061
DDDISDDEEDEIEENCL [RPN4]	3.48 ± 0.1	3.27 ± 0.089	3.14 ± 0.08	3.32 ± 0.1
KTNIIEKAMDYAISIEN [RPN12]	3.13 ± 0.18	3.25 ± 0.12	2.95 ± 0.1	3.45 ± 0.12

Sequence	protein stability index (doa10∆)	protein stability index (pdr5∆)	protein stability index (san1∆)	protein stability index (ubr1∆)
IASTEKPENKTDKVSLS [SIR4]	3.21 ± 0.069	3.1 ± 0.09	3.17 ± 0.067	2.89 ± 0.088
SLSIKLATLHYQKKQYK [RPN6]	1.33 ± 0.064	1.28 ± 0.061	1.34 ± 0.11	1.34 ± 0.079
RRIKEAEENLKKRIRLP [YIL149C/MLP2]	2.26 ± 0.08	2.23 ± 0.067	1.88 ± 0.12	2.02 ± 0.07
IKVTVQLKIQNRQAAAS [RPL12A]	1.57 ± 0.052	2 ± 0.052	1.75 ± 0.1	2.16 ± 0.04
LVIKSGKYTLGYKSTVK [RPL30]	2.75 ± 0.079	2.96 ± 0.061	2.5 ± 0.079	2.87 ± 0.05
RTQFGGGKSVGFGLVYN [RPS24A]	2.96 ± 0.065	2.82 ± 0.05	3.27 ± 0.047	2.91 ± 0.055
VSTSSGAAANNNDQKRQ [YJL041W/NSP1]	3.37 ± 0.084	3.17 ± 0.073	3.27 ± 0.035	3.45 ± 0.069
RAGGAAASLIMPFLDNQ [PRE7]	–	–	–	1.11 ± 0.11
FKKTLRSRISSPHGLIN [SRB4]	2.09 ± 0.049	2.15 ± 0.056	2.53 ± 0.065	2.15 ± 0.042
IYRGVLNDENSDDYDNE [SMC1]	3.19 ± 0.24	3.41 ± 0.15	3.21 ± 0.24	3.42 ± 0.14
TEDQKVTTNINWRSFNA [SRP68]	3.13 ± 0.097	3.16 ± 0.074	3.1 ± 0.058	3.21 ± 0.049
LGQYVQAHTLYNSVRPF [PRE10]	2.74 ± 0.1	2.87 ± 0.099	2.78 ± 0.11	2.65 ± 0.053
SGITGECLQAYIFFGPI [RET1]	2.6 ± 0.059	2.72 ± 0.064	2.64 ± 0.076	2.79 ± 0.051
ENPAFLPGTNNNSNSNN [SEC65]	3.12 ± 0.17	3.13 ± 0.24	2.69 ± 0.15	2.86 ± 0.067
LSNLSKDIKANLSSNVN [YCS4]	2.85 ± 0.05	3.03 ± 0.068	3.04 ± 0.06	2.93 ± 0.046
TLVGGGAKITPEMIKRS [RRP43]	–	3.29 ± 0.29	2.74 ± 0.22	–
PAPINSLSRDFVMKTRR [SNU114]	3.15 ± 0.081	2.95 ± 0.064	2.97 ± 0.049	3.15 ± 0.051
VDREAMLKPNIIFQQLL [YCG1]	2.98 ± 0.24	2.78 ± 0.19	–	–
NEAPPKTSLADWQKEDG [YMR153W/NUP53]	2.74 ± 0.13	3.14 ± 0.1	2.56 ± 0.16	2.93 ± 0.15
TPRGNHWMGSSVSGSPR [YMR129W/POM152]	3.25 ± 0.077	3.39 ± 0.077	3.01 ± 0.053	3.13 ± 0.064
DIINAVNEIMYKCTAAM [MTW1]	2.73 ± 0.089	2.77 ± 0.1	2.84 ± 0.11	2.33 ± 0.072
ELMDRTGLKLYSRITLI [RPP1]	1.57 ± 0.11	2.66 ± 0.1	1.69 ± 0.1	2.43 ± 0.12
RRERRLIFGTIASKMSL [RPT3]	2.31 ± 0.051	2.48 ± 0.068	2.36 ± 0.048	2.45 ± 0.038
SLSDNDLAVCATIIGII [ECM29]	2.71 ± 0.072	2.83 ± 0.056	2.78 ± 0.053	2.75 ± 0.038
PTETYSDVGGLDKQIEE [RPT5]	3.36 ± 0.21	3.35 ± 0.11	3.12 ± 0.068	3.21 ± 0.13
EIENATKDIFPLQNIHV [RPS1A]	2.1 ± 0.086	2.36 ± 0.27	1.11 ± 0.29	2.25 ± 0.083
AALFRLHKFLTKWGLIN [SWI3]	2.83 ± 0.22	–	2.94 ± 0.19	2.66 ± 0.23
